Several values for one entry are separate records, joined by “and”; a condition that tells them apart may be missing. Equal entries are not always repeated.
Tests used:
[1] = tested on: acidic tissues, tumors; assay: In vivo fluorescence imaging of tissue and tumor targeting; design: species or system mice and rats
Excerpt: The pH-dependent interaction of pHLIP with membranes allows selectivity in the targeting of acidic (less than pH 7.0) diseased tissue. As noted above, acidity and hypoxia are considered as universal cancer biomarkers, and pHLIP is used as an acidity-targeting probe. Besides cancer, many other pathological states, such as inflammation, ischemia, stroke, arthritis and others are characterized by acidity in the extracellular space, which may broaden the potential applications of pHLIP. […] In addition to fluorescence imaging, PET (positron emission tomography) imaging of the acidic environment in human prostate tumors was performed using ^64Cu-DOTA conjugated to pHLIP. […] To manipulate the acidity of tissues, a buffer solution is administered to the subject systemically or local to the area in which a pH change is desired. In this manner, pHLIP-liposome-mediated delivery of a cargo compound is regulated, e.g., reduced or stopped. For example, administering bicarbonated water, which increases tissue pH, results in a reduction of tumor targeting by pHLIP.
The transmembrane (TM) part of exemplary pHLIP peptides contain two Asp residues. […] The replacement of the key Asp residues by Lys, Ala or Asn leads to the loss of peptide of pH-dependent membrane insertion, as measured in liposomes, red blood cells and confirmed by in vivo fluorescence imaging. […]

[2] = in vivo
Excerpt: If the peptide sequence were made more hydrophobic, tighter binding to red blood cells and epithelial cells and more aggregation in solution, and slower clearance and reduced bioavailability would occur. Making the peptide less hydrophobic accelerates clearance and prevents the peptide from finding its targets. Therefore, fine tuning of the solubility is an important property to optimize pHLIP performance in vivo.

[3] = tested on: liposomes and cellular membranes; assay type: cell-based
Excerpt: Toxicity is one of the most critical issues in the selection of any delivery agent. For example, the use of pore-forming membrane peptides as delivery agents is complicated by the toxicity associated with the formation of pores in cellular membranes in vivo.

[4] = Oligomeric state and aggregation of pHLIP in solution and on membranes; assay type: physicochemical
Experimental: Poor solubility due to aggregation is a typical property of membrane peptides, which has complicated studies and applications. Isolated or purified pHLIP, as any membrane peptide, also has a tendency to aggregate, especially at high concentrations and/or low pH. However, in aqueous solution at neutral pH pHLIP exists as a monomer at concentrations less than 30 μg/mL (˜7.0 μM), as studied by fluorescence and CD spectroscopy measurements, size exclusion chromatography coupled with “on-line” laser light scattering, ultraviolet and refractive index detection (SEC-LS/UV/RI) and analytical ultracentrifugation experiments. When the solubility of the peptide is compromised as a result of mutations, the affinity of the peptide for a membrane and its overall conformational properties change. Thus, studies were undertaken to design pHLIP peptides that are optimized for clinical diagnostic and therapeutic use.
The oligomeric state of the peptide on the surface of a membrane (state II) and inserted into the lipid bilayer (state III) were evaluated by FRET performed with two different donor-acceptor probes attached to the N-terminus of the peptide.

[5] = pH-dependent membrane insertion of pHLIP peptides; assay type: physicochemical
Excerpt: Peptide folding and membrane insertion are driven by a drop of pH from neutral or high (>7.4) to slightly acidic (7.0-6.5 and less) pHs. […] In contrast, all pore forming peptides first form aggregates on the membrane surface and then “fall” into membrane and form pores.
The transmembrane (TM) part of exemplary pHLIP peptides contain two Asp residues. At neutral pH these charged residues enhance peptide solubility and serve as anchors keeping the peptide at the surface of membrane, thereby preventing pHLIP partitioning into the hydrophobic membrane bilayer. A reduction of pH induces protonation of Asp residues, and as a result, the overall hydrophobicity of the peptide increases, enhancing the affinity of the peptide for the lipid bilayer core and triggering peptide folding and insertion. The replacement of the key Asp residues by Lys, Ala or Asn leads to the loss of peptide of pH-dependent membrane insertion, as measured in liposomes, red blood cells and confirmed by in vivo fluorescence imaging. […] The Ala substitutions yield a peptide that aggregates in solution (but de-aggregates when it becomes diluted in bodily fluids or tissue upon administration to a subject), while the Lys and Asn substitutions give peptides that are too polar to insert either at neutral or low pH. […]

Substance	targeting of acidic tissue and tumors [1]	circulation in the blood [2]	cellular toxicity [3]	membrane leakage [3]	oligomeric state in states I, II and III [4]	concentration at which pHLIP exists as a monomer ([4]; aqueous solution at neutral pH)	apparent pK of insertion [5]
K-pHLIP (ACEQNPIYWARYAKWLFTTPLLLLKLALLVDADEGTG; pHLIP variant)	does not demonstrate tumor targeting	–	–	–	–	–	–
pHLIP: water-soluble polypeptide based on the bacteriorhodopsin C helix, e.g. SEQ ID NO: 4 (ACEQNPIYWARYADWLFTTPLLLLDLALLVDADET; pHLIP variant)	can target acidic tissues	several hours	no cellular toxicity	does not lead to membrane leakage	monomer	less than 30 μg/mL and ~7.0 μM	6.0

From US11857509B2, “Liposome compositions and methods of use thereof” (University of Rhode Island Board of Trustees, priority 2010, dated 2024)
